Data on 30 sequences can be found in the supplement of paper PMC9170038.

This series has as its system MS2 coat protein. In words: apparent KD of MS2 coat protein; designed switch direction (-1 OFF switch, 1 ON switch): -1; higher = weaker reporter binding. The gist of the method:
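Each step of the titration lasted 0.8–1.5 h at the lowest concentration and 10–20 min at the highest. The protein, SNAP-549-labelled MS2 coat protein, went from 0.7 or 1.5 nM doubling to 3 µM over RNA switches transcribed on Illumina chips by stalled E. coli RNA polymerase. Normalised cluster fluorescence was curve-fitted, and the per-design median over clusters is given as apparent KD.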

The mark [1] stands for this setting: Eterna round: R95, input ligand: FMN 200 uM.
Setting [2] is: Eterna round: R95, input ligand: microRNA oligo, concentration not stated.
[3] abbreviates: Eterna round: R95, input ligand: none.
The mark [4] stands for this setting: input ligand: microRNA oligo, concentration not stated.

With “AGAAGUAGAAACCGAUCCUACAUGAGGAUCACCCAUGUAGCAAGACGUGCACGCGAAGCUCGUCAGACUACCAGAAC [salish99_TOv1_r3_008] (puzzle: Sensor v3, turn-off variant 1)”, the “apparent KD of MS2 coat protein” value was 229 nM under setting [1], 264 nM under setting [2] and 421 nM under setting [3].

As for “AGAAGUAGUAACCGAUCCUACAUGAGGAUCACCCAUGUAGCUAGACGUGCACGCGACGCUCGUCAGACUACCAGAUG [salish99_TOv1_r3_029] (puzzle: Sensor v3, turn-off variant 1)”, the “apparent KD of MS2 coat protein” value runs as follows: under setting [1], 270 nM; under setting [2], 324 nM; under setting [3], 418 nM.

In the case of “AGAAGUAGUAUCCGAUCCUACAUGAGGAUCACCCAUGUAGCUAGACGUGCACGCGAUGCUCGUCAGACUACCAGAUG [salish99_TOv1_r3_030] (puzzle: Sensor v3, turn-off variant 1)”, the “apparent KD of MS2 coat protein” value under setting [1] turned out to be 156 nM, the “apparent KD of MS2 coat protein” value under setting [2] stood at 205 nM and the “apparent KD of MS2 coat protein” value under setting [3] is 405 nM.

As to “AGACAGUCAGGAUAUACAUGAGGAUCACCCAUGUUGAGAUGUGAAAGGGCAGGAAUAGGUAGAAGGGACGAGAG [JR_Exclu3_Sub038] (puzzle: Exclusion 3)”, under setting [2], the “apparent KD of MS2 coat protein” value was found to be 30.6 nM.

As to “AGAGAGUCAGGAUAUCGGAGGGAGAGGAGAGGAGAGAGGGACGAGAAGGGACAUGAGGAUCACCCAUGUAGGUG [JR_Exclusion4)Sub017] (puzzle: Exclusion 4)”, the “apparent KD of MS2 coat protein” value reads like this: under setting [1], 263 nM; under setting [2], 437 nM; under setting [3], 663 nM.

For the sequence “AGAGUACAUGUGAGGAUAUCUGGAGUGUCCCACGAAGAGAAGGCACAUGAGGAUCACCCAUGUCGUCCCGGUUU [Eternabot (L1) Solution 28] (Eterna round: R97, puzzle: Brourd's mod of Exclusion 4)”, the “apparent KD of MS2 coat protein” value (input ligand: FMN 200 uM) turned out to be 22.5 nM and the “apparent KD of MS2 coat protein” value (input ligand: none) turned out to be 17.1 nM.

Take “AGAGUGCUGCGAGGAUAUACAUGAGGAUCACCCAUGUUUACCUGUGAGGCAAAGCCUCACAGGUUGUAGAAGGCGCAGUACUCA [Mat - Exclusion NG 2 - Mod of JL - D42] (Eterna round: R96, puzzle: Exclusion NG 2)”: the “apparent KD of MS2 coat protein” value runs as follows: (input ligand: FMN 200 uM) 9.39 nM; under setting [4], 10.1 nM; (input ligand: none) 19.4 nM.

On to “AGAGUGCUGCGAGGAUAUACAUGAGGAUCACCCAUGUUUUCGUGUGAGGCUUUGCCUCACACGAAGUAGAAGGCGCAGUACUCA [Mat - Exclusion NG 2 - Mod of JL - D32] (Eterna round: R96, puzzle: Exclusion NG 2)”, for which the “apparent KD of MS2 coat protein” value reads like this: (input ligand: FMN 200 uM) 7.28 nM; under setting [4], 9.46 nM; (input ligand: none) 10.9 nM.

Take “AGAUAACAUGAGGAUCACCCAUGUGAGGAUAUUUACCCAAGAGCUUCGGCUCUCAGGUGAAGAAGGCACGUUGA [EX1 #59] (Eterna round: R97, puzzle: Exclusion 1)”: the “apparent KD of MS2 coat protein” value by setting is: (input ligand: FMN 200 uM) 109 nM; (input ligand: none) 55.4 nM.

Regarding “AGAUAGUGGUGAGGAUAUCAGAAUAGAAAGAAAUGAGAAGGCACACAUGAGGAUCACCCAUGUGAGGUCUUGAGACUACAUGGU [Prohibition 40 - Jieux - Exclusion NG 1] (Eterna round: R96, puzzle: Exclusion NG 1)”, the “apparent KD of MS2 coat protein” value (input ligand: FMN 200 uM) worked out at 21.2 nM, the “apparent KD of MS2 coat protein” value under setting [4] was determined as 12.5 nM and the “apparent KD of MS2 coat protein” value (input ligand: none) was determined as 17.3 nM.

As for “AGAUCACAUGAGGAUCACCCAUGUGAGGAUAUGAUACUAUGUACUUCGGUACAUAGUAUCAGAAGGCAUGUGGA [Ex1-3: 75] (puzzle: Exclusion 1)”, the “apparent KD of MS2 coat protein” value under setting [2] worked out at 53.7 nM.

In the case of “AGAUCACAUGAGGAUCACCCAUGUGAGGAUAUGGACUGAAGAGCUUCGGCUCUUCAGUCCAGAAGGCACAAUGA [EX1 #43] (Eterna round: R97, puzzle: Exclusion 1)”, the “apparent KD of MS2 coat protein” value by setting is: (input ligand: FMN 200 uM) 40.7 nM; (input ligand: none) 28.9 nM.

On to “AGAUGCUCAAGUCGACAUGAGGAUCACCCAUGUACAGUUAAUGAGGAUAUCCGAGAUAAAUAAUAGGAGAAGGCAUGAUCAUGA [Ex NG3 #4] (Eterna round: R96, puzzle: Exclusion NG 3)”, for which the “apparent KD of MS2 coat protein” value reads like this: (input ligand: FMN 200 uM) 103 nM; under setting [4], 47.3 nM; (input ligand: none) 102 nM.

Regarding “AGAUGGCGAGGAUAUACAUGAGGAUCACCCAUGUGAAUAAUAAUAGUGAGGAAGAAAAGUAGAAGGCGCUGUCA [Mat - Exclusion 3 - Mod of Salish D34] (puzzle: Exclusion 3)”, the “apparent KD of MS2 coat protein” value is, setting by setting: under setting [1], 357 nM; under setting [2], 42.1 nM; under setting [3], 41.2 nM.

Take “AGAUGUACCUAGGAUAUCCGUCUUAUUGGACUAGGAGAAGGAGGUACAUGAGGAUCACCCAUGUAUGACUCCUG [Veisteer] (puzzle: Exclusion 6)”: under setting [2], the “apparent KD of MS2 coat protein” value was determined as 9.08 nM.

Consider “AGAUGUAGAUACCGAUCCUACAUGAGGAUCACCCAUGUAGCUAGACGUGCUCGCGUCGCUCGUCAGACUACCAGUAG [salish99_TOv1_r3_089] (puzzle: Sensor v3, turn-off variant 1)”, for which the “apparent KD of MS2 coat protein” value worked out at 267 nM under setting [1], 199 nM under setting [2] and 259 nM under setting [3].

As to “AGAUGUAGAUACCGGUCCUACAUGAGGAUCACCCAUGUAGCUAGACGUGCGGGCGGCGCUCGUCGGACUACCAGUAG [salish99_TOv1_r3_098] (puzzle: Sensor v3, turn-off variant 1)”, the “apparent KD of MS2 coat protein” value was found to be 39.4 nM under setting [1], 42.8 nM under setting [2] and 59.7 nM under setting [3].

With “AGCAAGCUUUUAAGAUCCUACAUGAGGAUCACCCAUGUGCUCGUCUUGUAACGUACUGUGACGAAAGUCACGGUACG [JL TOV1 3.31] (Eterna round: R97, puzzle: Sensor, turn-off variant 1)”, the “apparent KD of MS2 coat protein” value is, setting by setting: (input ligand: FMN 200 uM) 374 nM; (input ligand: none) 506 nM.

As to “AGCAAGUCAGGAUAUCAAAGCAGCUAUAUGCUGCCCGGGCUUGAGAAGGGACUUGAGGAUCACCCAAGUGAUAG [Titiar] (Eterna round: R97, puzzle: Exclusion 4)”, the “apparent KD of MS2 coat protein” value came to 101 nM (input ligand: FMN 200 uM) and 25.1 nM (input ligand: none).

As for “AGCAUGCGGAAGGAUAUUUGGAGUAGCGACUCGGGAGAAGGUCUGACAUGAGGAUCACCCAUGUGGAGAGACUG [Eternabot (L1) Solution 59] (Eterna round: R97, puzzle: Exclusion 6)”, the “apparent KD of MS2 coat protein” value by setting is: (input ligand: FMN 200 uM) 39.2 nM; (input ligand: none) 20.9 nM.

For “AGCAUGGUAGGAUAUACGGAGCAUUAGGGUUUGUUAUGUGGACAUGAGGAUCACCCAUGUAGAAGGGCCGUGCA [Mat - Exclusion 2 - Mod of JL - D82] (puzzle: Exclusion 2)”, the “apparent KD of MS2 coat protein” value under setting [2] stood at 32.6 nM.

In the case of “AGCCAAGCAGGAUAUAUCCGGGAUAACAUGAGGAUCACCCAUGUGACCGAUUGAUAUCCUAUAGAAGGGCUUGGGA [Mod of ViennaUCT 23 - Jieux - Exclusion 5] (Eterna round: R97, puzzle: Exclusion 5)”, the “apparent KD of MS2 coat protein” value worked out at 135 nM (input ligand: FMN 200 uM) and 43.5 nM (input ligand: none).

For the sequence “AGCCAAGCAGGAUAUGCCCGUAAUAACAUGAGGAUCACCCAUGUGACCGAUUUAUGUUCUGCAGAAGGGCUUGGAA [LRO-Excl5-12-mod of Erxesoan mod by Eli Fisker] (Eterna round: R97, puzzle: Exclusion 5)”, the “apparent KD of MS2 coat protein” value was 91.3 nM (input ligand: FMN 200 uM) and 24.8 nM (input ligand: none).

“AGCCACAGAGGAUAUACAUACAUCCAGUAGCGGAUAUCGCUACAUGAGGAUCACCCAUGUAGAAGGCUGUGGCA [Omei Ex2 BD B22] (Eterna round: R97, puzzle: Exclusion 2)”: the “apparent KD of MS2 coat protein” value (input ligand: FMN 200 uM) was found to be 148 nM and the “apparent KD of MS2 coat protein” value (input ligand: none) was determined as 611 nM.

For the sequence “AGCCCUGCAGGAUAUGCCCGGGAUAACAUGAGGAUCACCCAUGUGACCGAUUGUUAUCCUGCAGAAGGGCAUGGGA [JL-EX5-4.12 ViennaUCT mod] (Eterna round: R97, puzzle: Exclusion 5)”, the “apparent KD of MS2 coat protein” value is, setting by setting: (input ligand: FMN 200 uM) 172 nM; (input ligand: none) 161 nM.

As for “AGCCCUGCAGGAUAUGUCGAGGAUAACAUGAGGAUCACCCAUGUGACCGAUUGUUAGACUGCAGAAGGGCAUGGGA [salish99_ex5_r4_304] (Eterna round: R97, puzzle: Exclusion 5)”, the “apparent KD of MS2 coat protein” value by setting is: (input ligand: FMN 200 uM) 278 nM; (input ligand: none) 70.6 nM.

In the case of “AGCCUACAUGAGGAUCACCCAUGUCAGGAUAUCUCGCGACGUGUCGGGUUCACGUUGCAGAGAAGGGACUCGGG [Estibera] (puzzle: Exclusion 1)”, the “apparent KD of MS2 coat protein” value under setting [2] is 46.4 nM.

Take “AGCGAAAAGACAGGAUAUGAGAAUAGAUAGAGCUCAGAAGGGUCACAUGAGGAUCACCCAUGUAAAGUCUUGAGGCUGCGUGGU [Prohibition 11 - Jieux - Exclusion NG 1] (Eterna round: R96, puzzle: Exclusion NG 1)”: the “apparent KD of MS2 coat protein” value is, setting by setting: (input ligand: FMN 200 uM) 184 nM; under setting [4], 43.4 nM; (input ligand: none) 55.6 nM.

For the sequence “AGCGAAUAAGUAGGAUAUGAGAAUAGAUAGAGCUCAGAAGGACUACAUGAGGAUCACCCAUGUAAAGUCUUGAGGCUGCGUGGU [Prohibition 14 - Jieux - Exclusion NG 1] (Eterna round: R96, puzzle: Exclusion NG 1)”, the “apparent KD of MS2 coat protein” value is, setting by setting: (input ligand: FMN 200 uM) 10.8 nM; under setting [4], 11.3 nM; (input ligand: none) 13.7 nM.

In the case of “AGCGCCAUCGUGAGAUGGCGUAUUACAUGAGGAUCACCCAUGUAGGAUAUCGAUUGCUUUGCAGUCGAGAAGGGCAUGUCCAAG [JL ENG3 3.80 Mod I] (Eterna round: R96, puzzle: Exclusion NG 3)”, the “apparent KD of MS2 coat protein” value by setting is: (input ligand: FMN 200 uM) 45.4 nM; under setting [4], 37.8 nM; (input ligand: none) 35 nM.
